This is an account of results in patent publication US7122382.

The target in one test is Jun (UniProt P05627). Briefly: biotinylated row protein on streptavidin beads, 35S column protein counted.
The next test deals with SV40 large T (SV40) (UniProt P03070). The test is described as above.
In a further test the target is Fos (UniProt P01101). Described as above.
Test [1] has as its target luciferase [luciferase: P08659]. The test is described as above.
A further test deals with p53 (UniProt P02340). Described as above.
Another test addresses streptoavidin beads (UniProt P22629). Briefly: five 35S-labelled proteins alone on streptavidin beads, no biotinylated protein.

Sequence of luciferase [luciferase: P08659] (P08659 whole entry): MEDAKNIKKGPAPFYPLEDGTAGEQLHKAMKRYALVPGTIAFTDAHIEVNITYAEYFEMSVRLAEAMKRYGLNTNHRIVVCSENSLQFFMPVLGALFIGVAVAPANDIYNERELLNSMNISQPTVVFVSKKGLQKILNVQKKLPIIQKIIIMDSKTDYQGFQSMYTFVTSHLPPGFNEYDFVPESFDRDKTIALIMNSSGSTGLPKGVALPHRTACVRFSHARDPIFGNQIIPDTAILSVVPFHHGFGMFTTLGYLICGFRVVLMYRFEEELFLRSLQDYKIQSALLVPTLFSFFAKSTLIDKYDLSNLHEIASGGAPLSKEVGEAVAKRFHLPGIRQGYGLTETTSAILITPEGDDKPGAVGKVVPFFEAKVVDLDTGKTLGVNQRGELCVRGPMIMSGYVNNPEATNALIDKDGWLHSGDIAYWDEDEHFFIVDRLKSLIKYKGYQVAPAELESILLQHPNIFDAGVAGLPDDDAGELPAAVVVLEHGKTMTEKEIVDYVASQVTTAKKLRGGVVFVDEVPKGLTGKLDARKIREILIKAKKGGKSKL
Sequence of streptoavidin beads (P22629 37-163): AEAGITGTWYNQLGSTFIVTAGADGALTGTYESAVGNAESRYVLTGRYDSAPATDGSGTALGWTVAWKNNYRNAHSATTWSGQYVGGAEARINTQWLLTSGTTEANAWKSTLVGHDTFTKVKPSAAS
Sequence of Fos (P01101 whole entry): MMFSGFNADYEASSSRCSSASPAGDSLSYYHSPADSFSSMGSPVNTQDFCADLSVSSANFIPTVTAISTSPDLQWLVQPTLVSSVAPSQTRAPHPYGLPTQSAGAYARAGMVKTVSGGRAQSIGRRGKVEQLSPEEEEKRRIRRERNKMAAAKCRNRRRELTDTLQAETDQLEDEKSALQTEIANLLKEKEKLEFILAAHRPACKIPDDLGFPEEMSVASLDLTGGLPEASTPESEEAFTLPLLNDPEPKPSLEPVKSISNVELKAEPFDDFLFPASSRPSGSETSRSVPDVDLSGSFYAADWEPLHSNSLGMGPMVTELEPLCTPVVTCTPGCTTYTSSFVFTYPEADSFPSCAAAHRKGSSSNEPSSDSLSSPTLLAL
Sequence of p53 (P02340 whole entry): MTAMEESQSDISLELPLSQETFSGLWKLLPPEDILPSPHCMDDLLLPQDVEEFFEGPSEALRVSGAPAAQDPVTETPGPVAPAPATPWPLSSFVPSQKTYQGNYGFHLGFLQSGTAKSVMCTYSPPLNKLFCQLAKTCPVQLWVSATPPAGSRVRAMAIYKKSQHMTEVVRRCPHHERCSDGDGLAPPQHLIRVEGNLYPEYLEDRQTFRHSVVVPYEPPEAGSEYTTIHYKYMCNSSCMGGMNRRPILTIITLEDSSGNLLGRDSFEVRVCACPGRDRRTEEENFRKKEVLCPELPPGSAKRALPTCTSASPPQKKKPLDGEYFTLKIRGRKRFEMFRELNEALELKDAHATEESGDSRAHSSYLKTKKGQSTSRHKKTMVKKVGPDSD
Sequence of Jun (P05627 whole entry): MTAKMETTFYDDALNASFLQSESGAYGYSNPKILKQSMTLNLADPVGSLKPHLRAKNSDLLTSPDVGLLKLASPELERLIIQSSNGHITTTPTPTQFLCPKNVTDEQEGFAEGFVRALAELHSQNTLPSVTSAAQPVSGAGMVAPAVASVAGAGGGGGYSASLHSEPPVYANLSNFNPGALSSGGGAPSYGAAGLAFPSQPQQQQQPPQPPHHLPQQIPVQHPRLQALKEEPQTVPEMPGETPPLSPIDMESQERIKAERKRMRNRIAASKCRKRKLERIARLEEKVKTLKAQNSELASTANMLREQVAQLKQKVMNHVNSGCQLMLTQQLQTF

Consider “SV40 large T (from UniProt P03070 1-708)”, for which the RI (c.p.m.) with Jun turned out to be 197 c.p.m; with SV40 large T (SV40) it was 551 c.p.m; with Fos it was 197 c.p.m.
As to “SV40 large T (from UniProt P03070 1-708) (other; other documents disagree on this pair)”, the RI (c.p.m.) in test [1] worked out at 208 c.p.m; in the test with p53 it was 1400 c.p.m.
Regarding “mixture of the five proteins of Reference Examples 1 and 2 (Fos, Jun, luciferase, SV40 large T, p53)”, in the test with streptoavidin beads, the RI (cpm), background without biotinylated proteins stood at 447 cpm.
Regarding p53 (from UniProt P02340 1-390), the RI (c.p.m.) with p53 is 200 c.p.m.
